Tests used:
[1] = molecular target: T1, HLA-A2.1 (HLA-A*0201) on the surface of T2 cells (human); experiment: HLA-A2 binding assay, FACS profiles (T2 cells)
T1 construct: MHC class I molecule on T2 cells

[2] = molecular target: T1, HLA-A2.1 (HLA-A*0201) on the surface of …; experiment: T2 cell HLA-A*0201 stabilisation, flow cytometry
[3] = molecular target: T1, HLA-A2.1 (HLA-A*0201) on the surface of …; experiment: HLA-A2 binding assay, FACS profiles (T2 cells); the weaker of the two 9-mers
[4] = molecular target: T1, HLA-A2.1 (HLA-A*0201) on the surface of …; experiment: T2 cell HLA-A2.1 stabilisation, flow cytometry with FITC anti-HLA A2, A28

B1: tyrosinase207-215, FLPWHRLFL (peptide)
peptide: FLPWHRLFL
notes: Synthetic 9-mer from tyrosinase; also called Tyr 207-215
binding result [1]: binds

B2: PSMA663-671 (SEQ ID NO. 66) (peptide)
peptide: MMNDQLMFL
notes: Synthetic 9-mer from prostate specific membrane antigen
binding result [2]: binds

B3: tyrosinase208-216, LPWHRLFLL (peptide)
peptide: LPWHRLFLL
notes: Synthetic 9-mer from tyrosinase; also called Tyr 208-216
binding result [3]: binds

B4: SSX-2 41-49, KASEKIFYV (peptide)
peptide: KASEKIFYV
notes: also called 15
binding result [4]: binds
